In the nanobody polyreactivity screen of Harvey et al. (2022):

Assay: yeast display, Sf9 membrane polyspecificity reagent, FACS + sequencing; frameworks hold sequencing errors
In short: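 Using colony PCR, genes from sorted yeast display clones were amplified, then sequenced on MiSeq at 2 × 250 and filtered by CDR length. The clones had been stained with 10% biotinylated, detergent-solubilized Sf9 membrane reagent for 1 hour at 4 °C and sorted by FACS into low and high (top ~1%) gates on anti-HA and streptavidin fluorescence. Polyreactivity labels come from the gate of origin.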

QVQLVESGGGLVQAGGSLRLSCAASGSTLYIYVMGWYRQAPGKERELVAAIDSGDDTDYADSVKGRFTISRDNAKNTVYLQMNSLKPEVTAVYYCAAQKWYYPYYWGKGTQVTVSS
polyreactivity (PSR sort gate): high polyreactivity

QVQLVESGGGLVQAGGSLRLSCAASGRILSVYAMGWYRQAPGKERELVAAIEYSGGSTNYADSVKVRFTISRDTSKHTVYLLMNSLLPEDTAVYYCNGEGGAIAWRYLLEYLYSWGQGTQVTVSS
polyreactivity (PSR sort gate): low polyreactivity

QVQLVESGGGLVQAGGSLRLSCAASGRIYDYMAWYRQAPGKERELVAAISWRGGRTYYADSVKGRFTISRDNAKNTVYLQMNSLKPEDTAVYYCAAKTTYRYGYWGQGSQVTVSS
polyreactivity (PSR sort gate): high polyreactivity

QVQLVESGGGLVQAGGSLRLSCAASGSTFWTNAMGWYRQAPGKERELVAVISRGGSTNYADSVKGRFTISRDNAKNTVYLQMNSLKPEDTAVYYCAAASYLYGRYYYWGQGTQVTVSS
polyreactivity (PSR sort gate): high polyreactivity

QVQLVESGGGLVQAGGSLRLSCAASGSIFYGYAMGWYRQAPGKERELVAAITGGGSTNYADSVKGRFTISRDNAKNTVYLQMNSLKPEDTAVYYCAAAPVSLPDYGYWGQGTQVTVSS
polyreactivity (PSR sort gate): low polyreactivity

QVQLVESGGGLVQAGGSLRLSCAASGLTFVDNALGWYRQAPGKERELVAAISYNGGSTYYADSVKGRFTISRDNAKNTVYLQMNSLKPEDTAVYYCAADISVGRYGDMDYWGQGTQVTVSS
polyreactivity (PSR sort gate): low polyreactivity

QVQLVESGVGLVQAGGSLRLSCAASGRTFDVYAMGWYRQAPGKERELVAAISRGGSTYYADSVKGRFTISRDNAKNTVYLQMNSLKPEDTAVYYCNKAYSSTRGYGYWGQGTQVTVSS
polyreactivity (PSR sort gate): high polyreactivity

QVQLVESGGGLVQAGGSLRLSCAASGSTFAYYAMGWYRQAPGKERELVAAISVSGGRTYYADSVKGRFTISRDNAKNTVYLQMNSLKPEDTAVYYCAARLWRDYYWGQGTQVTVSS
polyreactivity (PSR sort gate): high polyreactivity

QVQLVESGGGLVQAGGSLRLSCAASGRTFYKNTMGWYRQAPGKERELVAPITRRGGTPYYADSVKGRFTISRDNAKNTVYLQMNSLQPEDTAVYYCAVLTWYFLLQYGYYQEGDYWGQGTQVTVSS
polyreactivity (PSR sort gate): low polyreactivity

QVQLVESGGGLVQAGGSLRLSCAASGLTLDQYPMGWYRPAPGKEREFVAAISYSGGNTYYADSVKGRFTISRYNAKNTVYLQMNSLKPEETAVYYCAAYYYYFYHKVIWYELDYWGHGTQVTVSS
polyreactivity (PSR sort gate): low polyreactivity

LVQHVESGGGLVQAGGSLRLNCAASGRTFKPYAMGWYIQSPGKERELVAAISTRGGSTYYADSVKGRFTISRDNAKNSVFLQMNSLKPEDTALFYCAATQPGRDYDYWGQGTQVTVSS
polyreactivity (PSR sort gate): low polyreactivity

QVHLVESGGGLVQAGGSLRLSCAASGYIFHVYAMGWYRQAPGKERELVAAITSSGGSKYYADSVKGRFTISRDNAKNTVYLQMNCLKPEDTAVYYCAARTRYISGRQTGYDYWGQGTQVTVSS
polyreactivity (PSR sort gate): high polyreactivity

QVQLVESGGGLVQAGGSLRLSCAASGRIFGGYAMGWYRQAPGKERELVAVISRGGSITDYADSVKGRFTISRDNAKNTVYLQMNSLKPEDTAVYYCAARICGGSYWGQGTQVTVSS
polyreactivity (PSR sort gate): high polyreactivity

QVQLEESGVGLVQAGGSLRLSCAASGYTFDYYDMAWYRQAPGKERELVAAISCSGGRTYYADSVKGRFTISRDNAKNTVYLQMNSLKPEDTAVYYCNTRYGALGKGGMDYWGQGTQVTVSS
polyreactivity (PSR sort gate): high polyreactivity

QVQLVESGGGLVQAGGSLRLSCAASGRTFNYYAMGWSRQAPGKERELVAAITSGGRTNYADSVKGRFTISRDNAKNTVYLQMNSLKPEDTAVYYCATEYYRYRWVGAFRYPVYYWGQGTQVTVSS
polyreactivity (PSR sort gate): low polyreactivity

QVQLVESGGCLVQAGGSLRLSCAASGLTFKWNTMGWYRQAPGKESELVAAISWRVVSTYYADSVKGRFTISRDNAKNTVYLQMNSLKPEDTAVYYDYWGQGTQVTVSS
polyreactivity (PSR sort gate): low polyreactivity

QVQLVESGGGLVQAGGSLRLSCAASGRIFGVYAMGWYRQAPGKERELVAAISSTGDRTYYADSVKGRFTISRDNAKNTVYLQMNSLKPEDTAVYYCAARPAYRSSYYWGQGTQVTVSS
polyreactivity (PSR sort gate): high polyreactivity

QVQLVESGGGLVQAGGSHRLSCAASGRTFKGNAMGWYRQAPGQERELVAAISSRGGRTFYADSVKGRYTISRDNAKNTVYLQMNSLKPDDTAVYDCAAYSPLTKTPDSPVRYDYWGQGTQVTVSS
polyreactivity (PSR sort gate): high polyreactivity

QVQLVESGGGLVQAGGSLRLSCAASGRTIRYYAMGWYRQAPGKERELVAAISWNGANTYYADSVKGRFTISRDNAKNTVYLQMNSLKPEDTAVYYCAATYYRWKGYDYWGQGTQVTVSS
polyreactivity (PSR sort gate): high polyreactivity

QVQLVESGGGLVQAGGSLRLSCAASGYIFRSYAMGWYRQAPGKERELVATISWIGGGTSYADSVKGRFTISRDNAKNTVYLQMNSLKPEDTAVYYCAAGPWAYGRRHAYYSRSFDYWGQGTQVTVSS
polyreactivity (PSR sort gate): high polyreactivity

QVQLVESGGGLVQEGGSLRLSCAASGITFDYYAMGLYRQAPGKERELVASISYSGGSTYADSVKGRFTISRDNAKNTVYLQMNSLKPEDTAVYYCAKDSQETAYNTVDYCGQGTQVTVSS
polyreactivity (PSR sort gate): low polyreactivity

QVQLVESGGGLVQAGGSLRLSCAASGSMFSVYAMGGYRQAPGKEMELVAAISRSGGSTYYADSVKGRFTISRDTAKNTVYLQMNSLKPEDTAVYYCAARLAGRGSSSSRVVRTGGYWGQGTQVTVSS
polyreactivity (PSR sort gate): high polyreactivity

QVQLVESGGGLVQAGGSLRLSCAASGSTIWRNTMGWYRQAPGKERELVADIRNVGSTYYADSVKGLFTISRDNAKNTVYLQMNSLKPEDTAVYYCYARWRFLYDYWGQGTQVTVSS
polyreactivity (PSR sort gate): high polyreactivity

QVQLVESGGGLVQAGGSLRLSCAASGFIYARYAMGSYRQAPGKERELLAAISWSGARTYYADSVKGRFTISRDNAKNTVYLQMNSLKAEDTAVYYCAARRLSYSYDYWGQGTQVSVSS
polyreactivity (PSR sort gate): high polyreactivity

QVQLVESGGGLVQAGGSLRLSCAASGRTCGSYAMGWYRQAPGKERELVAAISLSAGSTYYADSVKGRFTISRDNAKNTVYLQMNSLKPEDTAVYYCAAGTQWYSQVYIYYYWGQGTQVTVSS
polyreactivity (PSR sort gate): low polyreactivity

QVQLVESGGGLVQAGGSLRLSCAASGRIFYNYAMGWYRQAPGKERELVAAITRRAGRTYYADSVKGRFTISRDNAKNTVYLQMNSLKPEDTAVFYCAKDEPGSSRVLYDYWGQVTQVTVSS
polyreactivity (PSR sort gate): low polyreactivity

QVQLVESGGGLVQAGGSLRLSCAASGSIFAGYAMGWYRQAPGKERELVAAISRRGGRTYYADSVKGRFTISRDNAKNTVYLQMNSLKPEDTAVYYCARRVDYISSKYGYWGQGTQVTVSS
polyreactivity (PSR sort gate): high polyreactivity

QVQHVESGGGLVQAGGSLRLSCAASGTIFEGKGMGWYRQAPGKERELVAAITFRSGSTYYADSVKGRFTISRDNAKNTVYLQMNSLKPEDTAVYYCAADEYYQVSAYDYWGQGTQVTVSS
polyreactivity (PSR sort gate): low polyreactivity

QVQLVESGGGLVQAGGSLRLSCAASGRIFVIYGMGWYRQAPGKERELVAAIRWTGGSTYFADSVKGRFTISRDNAKNTVYLQMNSLKPEDTAVYYCNAGSDRAIWPTHDYWGQGTQVTVSS
polyreactivity (PSR sort gate): low polyreactivity

QVQLVESGGGLVQAGGSLRLSCASSGYIFEKYAMGWYRQAPGKERELVAAITVTGASTYYADSVKGRFTISRDNAKNTVYLQMNSMNPEDTAVYYCAAKTLSVGYVDPDYGRDYWGQGTQVTVSS
polyreactivity (PSR sort gate): low polyreactivity

QVQLVESGGGLVQAGGSLRLSCAASGFIFFVNAMGWYRQAPGKEREFVATITGSGGSTYYADSVKGRFTISRDNAKNTVYLQMNSLKPEDTAVYYCAALGPYLDYGVQYGYWGQGTQVTVSS
polyreactivity (PSR sort gate): low polyreactivity

QVQLVESGGGLVQAGGSLRLSCAASGLTLYYNAMGWYRQAPGKERELVAAMSGSGGNTYYADSVKGRFTISRDNAKNTVYLQMNSLKPEDTAVYYCNAYTHSRNPERREYYWGQGTQVTVSS
polyreactivity (PSR sort gate): high polyreactivity
